In patent publication US20170210813A1:
Blank lines part the entries; values can stand above or below the substance they belong to.

How the values were obtained:
[1] = biological target: full length human PDGFR-beta on HEK293 cells (human) (UniProt P09619); experiment: cell-based or functional assay
[2] = biological target: hPDGFRb.mmh (human) (UniProt P09619); experiment: Octet BLI cross-competition, 25 C; hPDGFRb.mmh on anti-Penta-His tips pre-saturated with mAb-1 H4H3107S (row 7)
[3] = biological target: hPDGFRb.mmh (human) (UniProt P09619); experiment: blocking ELISA, biot-hPDGFRb.mmh to coated PDGF-BB
[4] = biological target: Macaca fascicularis PDGFRb.mmh (Macaca fascicularis); experiment: SPR, mAb captured, 37 C
Sequence of Macaca fascicularis PDGFRb.mmh (Macaca fascicularis) (chain, as listed by the source): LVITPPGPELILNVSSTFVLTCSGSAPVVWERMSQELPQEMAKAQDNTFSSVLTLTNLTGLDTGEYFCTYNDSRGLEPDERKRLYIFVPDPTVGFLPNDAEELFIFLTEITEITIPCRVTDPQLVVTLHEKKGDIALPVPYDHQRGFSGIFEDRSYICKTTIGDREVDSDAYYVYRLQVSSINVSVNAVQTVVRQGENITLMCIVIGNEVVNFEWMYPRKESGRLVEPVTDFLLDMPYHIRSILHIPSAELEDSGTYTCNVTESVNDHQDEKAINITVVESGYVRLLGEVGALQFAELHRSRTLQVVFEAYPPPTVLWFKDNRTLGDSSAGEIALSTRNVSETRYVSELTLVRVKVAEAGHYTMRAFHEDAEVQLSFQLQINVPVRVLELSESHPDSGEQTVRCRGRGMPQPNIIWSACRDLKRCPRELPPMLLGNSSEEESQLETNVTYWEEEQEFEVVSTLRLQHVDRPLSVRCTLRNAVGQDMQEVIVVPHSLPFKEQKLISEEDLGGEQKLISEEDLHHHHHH

[5] = biological target: human PDGFRb.hFc (human); experiment: SPR, mAb captured, 37 C
[6] = biological target: hPDGFRb.mmh (human) (UniProt P09619); experiment: SPR, mAb captured, 37 C
[7] = biological target: Macaca fascicularis PDGFRb.mmh (Macaca fascicularis); experiment: SPR, mAb captured, 25 C
[8] = biological target: human PDGFRb.hFc (human); experiment: SPR, mAb captured, 25 C
[9] = biological target: hPDGFRb.mmh (human) (UniProt P09619); experiment: SPR, mAb captured, 25 C
[10] = biological target: hPDGFRb.mmh (human) (UniProt P09619); experiment: Octet BLI cross-competition, 25 C; hPDGFRb.mmh on anti-Penta-His tips pre-saturated with mAb-1 H4H3310N (row 9)
[11] = biological target: hPDGFRb.mmh (human) (UniProt P09619); experiment: Octet BLI cross-competition, 25 C; hPDGFRb.mmh on anti-Penta-His tips pre-saturated with mAb-1 H4H3099S (row 6)
[12] = biological target: hPDGFRb.mmh (human) (UniProt P09619); experiment: Octet BLI cross-competition, 25 C; hPDGFRb.mmh on anti-Penta-His tips pre-saturated with mAb-1 Control I (row 1); self-competition
[13] = biological target: hPDGFRb.mmh (human) (UniProt P09619); experiment: Octet BLI cross-competition, 25 C; hPDGFRb.mmh on anti-Penta-His tips pre-saturated with mAb-1 H4H3305N (row 8)
[14] = biological target: hPDGFRb.mmh (human) (UniProt P09619); experiment: blocking ELISA, biot-hPDGFRb.mmh to coated PDGF-BB; average of three experiments

Sequence of Control I (antibody) (VH): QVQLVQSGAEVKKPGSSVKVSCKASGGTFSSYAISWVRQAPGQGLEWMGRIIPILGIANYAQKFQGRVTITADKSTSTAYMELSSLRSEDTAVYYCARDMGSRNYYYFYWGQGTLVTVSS
Sequence of Control I (antibody) (VL): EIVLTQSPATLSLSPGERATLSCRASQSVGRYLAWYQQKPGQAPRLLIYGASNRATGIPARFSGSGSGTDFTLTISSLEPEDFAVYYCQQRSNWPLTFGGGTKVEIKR
Sequence of full length human PDGFR-beta on HEK293 cells (human) (P09619 33-1106 limits assumed): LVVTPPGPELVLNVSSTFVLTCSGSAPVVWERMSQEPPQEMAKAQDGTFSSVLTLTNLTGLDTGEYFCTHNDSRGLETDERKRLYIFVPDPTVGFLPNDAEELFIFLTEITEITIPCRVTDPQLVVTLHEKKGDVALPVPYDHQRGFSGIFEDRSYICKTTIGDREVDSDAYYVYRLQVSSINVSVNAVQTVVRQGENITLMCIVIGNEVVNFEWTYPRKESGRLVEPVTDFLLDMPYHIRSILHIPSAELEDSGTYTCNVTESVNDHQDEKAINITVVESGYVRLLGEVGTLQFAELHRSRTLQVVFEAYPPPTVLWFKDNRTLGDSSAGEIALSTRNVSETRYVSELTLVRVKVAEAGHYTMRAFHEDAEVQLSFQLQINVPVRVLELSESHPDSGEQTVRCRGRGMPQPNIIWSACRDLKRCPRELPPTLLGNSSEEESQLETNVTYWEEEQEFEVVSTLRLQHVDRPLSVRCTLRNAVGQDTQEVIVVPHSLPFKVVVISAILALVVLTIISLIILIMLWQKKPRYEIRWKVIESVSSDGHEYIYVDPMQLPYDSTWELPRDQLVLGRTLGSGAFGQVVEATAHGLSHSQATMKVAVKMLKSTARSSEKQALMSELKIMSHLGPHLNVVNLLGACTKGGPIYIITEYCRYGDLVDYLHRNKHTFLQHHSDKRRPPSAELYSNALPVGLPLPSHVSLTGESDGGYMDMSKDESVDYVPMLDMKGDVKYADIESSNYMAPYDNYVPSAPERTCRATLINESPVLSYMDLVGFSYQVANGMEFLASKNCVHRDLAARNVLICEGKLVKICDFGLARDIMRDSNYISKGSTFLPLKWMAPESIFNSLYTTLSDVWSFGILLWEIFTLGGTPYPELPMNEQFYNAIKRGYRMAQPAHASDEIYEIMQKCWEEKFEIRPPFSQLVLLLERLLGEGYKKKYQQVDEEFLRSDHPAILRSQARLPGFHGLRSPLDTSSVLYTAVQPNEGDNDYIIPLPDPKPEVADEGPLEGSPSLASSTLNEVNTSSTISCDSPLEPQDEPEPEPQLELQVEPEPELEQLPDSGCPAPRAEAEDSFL
Sequence of hPDGFRb.mmh (human) (P09619 other isoform, or with tags, fused parts or gaps): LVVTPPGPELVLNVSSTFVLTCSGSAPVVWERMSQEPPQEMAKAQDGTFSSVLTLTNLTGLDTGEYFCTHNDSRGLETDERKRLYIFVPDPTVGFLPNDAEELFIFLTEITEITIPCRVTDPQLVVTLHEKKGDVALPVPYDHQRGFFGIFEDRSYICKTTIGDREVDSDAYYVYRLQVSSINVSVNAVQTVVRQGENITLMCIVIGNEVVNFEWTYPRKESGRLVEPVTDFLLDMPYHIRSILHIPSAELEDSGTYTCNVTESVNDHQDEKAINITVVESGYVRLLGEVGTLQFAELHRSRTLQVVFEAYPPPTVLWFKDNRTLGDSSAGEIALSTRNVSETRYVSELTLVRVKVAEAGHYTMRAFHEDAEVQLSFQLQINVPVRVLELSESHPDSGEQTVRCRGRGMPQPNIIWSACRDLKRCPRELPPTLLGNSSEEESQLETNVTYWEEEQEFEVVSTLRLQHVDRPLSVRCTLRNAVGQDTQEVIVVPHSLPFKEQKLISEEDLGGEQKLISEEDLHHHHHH

IC50, blocking PDGF-BB (250 pM) activation, SRE-luciferase [1]: 1.8e-10 M
IC50, blocking PDGF-DD (400 pM) activation, SRE-luciferase [1]: 1.8e-10 M
Percent Internalization (Relative to Control I) [1]: 100%
Response of mAb-2 Binding to hPDGFRβ.mmh Pre-Complexed with mAb-1 (nm) [2]: 0.32 nm
% Maximum Blocking [3]: 92%
Kd [4]: 20.1 nM
koff [4]: 0.00982 s⁻¹
kon [4]: 489000 M⁻¹ s⁻¹
t1/2 [4]: 1.2 min
Kd [5]: 0.27 nM
koff [5]: 0.000217 s⁻¹
kon [5]: 804000 M⁻¹ s⁻¹
t1/2 [5]: 53 min
Kd [6]: 32.5 nM
koff [6]: 0.0146 s⁻¹
kon [6]: 450000 M⁻¹ s⁻¹
t1/2 [6]: 0.8 min
Kd [7]: 8.06 nM
koff [7]: 0.00243 s⁻¹
kon [7]: 302000 M⁻¹ s⁻¹
t1/2 [7]: 5 min
Kd [8]: 0.278 nM
koff [8]: 0.00015 s⁻¹
kon [8]: 539000 M⁻¹ s⁻¹
t1/2 [8]: 77 min
Kd [9]: 12.6 nM
koff [9]: 0.00349 s⁻¹
kon [9]: 277000 M⁻¹ s⁻¹
t1/2 [9]: 3 min
Response of mAb-2 Binding to hPDGFRβ.mmh Pre-Complexed with mAb-1 (nm) [10]: 0.33 nm
Response of mAb-2 Binding to hPDGFRβ.mmh Pre-Complexed with mAb-1 (nm) [11]: 0.34 nm
Response of mAb-2 Binding to hPDGFRβ.mmh Pre-Complexed with mAb-1 (nm) [12]: 0.05 nm
Response of mAb-2 Binding to hPDGFRβ.mmh Pre-Complexed with mAb-1 (nm) [13]: 0.34 nm
IC50 [14]: 0.34 nM
Substance: Control I (antibody)

Percent Internalization (Relative to Control I) [1]: 4%
Substance: Isotype Ctrl (antibody)
